{
  "source": "patent US20070184522A1",
  "about": "“Cell death modulation via antagonists of Fasl and Fas activation” (University of Pittsburgh of the Commonwealth System of …, priority 2004, published 2007)",
  "molecules": {"B1": {"name": "alpha subunit of Met (AlphaMet), amino acid residues 1 to 306, His-tagged (receptor, mouse)", "chain": "MKAPTVLAPGILVLLLSLVQRSHGECKEALVKSEMNVNMKYQLPNFTAETPIQNVVLHGHHIYLGATNYIYVLNDKDLQKVSEFKTGPVLEHPDCLPCRDCSSKANSSGGVWKDNINMALLVDTYYDDQLISCGSVNRGTCQRHVLPPDNSADIQSEVHCMFSPEEESGQCPDCVVSALGAKVLLSEKDRFINFFVGNTINSSYPPGYSLHSISVRRLKETQDGFKFLTDQSYIDVLPEFLDSYPIKYIHAFESNHFIYFLTVQKETLDAQTFHTRIIRFCSVDSGLHSYMEMPLECILTEKRRKRHHHHHH"}},
  "key": {"[1]": {"tested_on": "endogenous Fas from Jurkat and Hepa 1-6 cells", "assay": "Immunoprecipitation with anti-Fas antibody after adding AlphaMet proteins to Jurkat and Hepa 1-6 cells, Western blot with anti-His", "format": "binding", "conditions": "proteins added to Jurkat cells and Hepa 1-6 cells", "description": "The Met alpha but not beta chain binds to Fas (FIG. 1a). Various regions of the mouse Met cDNA corresponding to the alpha chain or the extra-cellular portion of the Met beta chain were cloned into expression vectors (pCRT7 TOPO/AlphaMet or pCRT7 TOPO/beta chain) and subjected to in vitro transcription/translation by a rabbit reticolucyte lysate translation system. Empty vector was included in each experiment as a control. The expressed proteins were labeled with ^35S-Methionine. Pull down assays were performed using Fas-Fc, a chimeric molecule which lacks the interacellular cytoplasmic domain and protein-A agarose as described in Wang et al., 2002. […] FIG. 1d depicts the amino acid sequence alignment of alpha chain with FasL, determined using the CLUSTALW, SIM+LALNVIEW, and ALIGN at ExPASy Proteomic Tools (available on the internet at us.expresly.org/tools). […] Recombinant His-tagged AlphaMet or its mutant version were expressed in E. coli, purified with chromatography, and subjected to Fas-Fc (lanes labeled Fas) or control IgG pull down experiments, and detected by Western blot using anti-His antibody that recognizes C-terminal His. […] After washing the wells, anti-human […]-HRP conjugates (1:20,000) were added to detect the bound Fas-Fc using TMD dye and the OD value was determined at a wavelength of 450 nm. […]"}, "[2]": {"molecular_target": "T1, Fas trimerization in Jurkat cells (Homo sapiens, UniProt P25445)", "T1 construct": "endogenous in cells; host or cells: Jurkat", "T1 sequence (P25445 26-335)": "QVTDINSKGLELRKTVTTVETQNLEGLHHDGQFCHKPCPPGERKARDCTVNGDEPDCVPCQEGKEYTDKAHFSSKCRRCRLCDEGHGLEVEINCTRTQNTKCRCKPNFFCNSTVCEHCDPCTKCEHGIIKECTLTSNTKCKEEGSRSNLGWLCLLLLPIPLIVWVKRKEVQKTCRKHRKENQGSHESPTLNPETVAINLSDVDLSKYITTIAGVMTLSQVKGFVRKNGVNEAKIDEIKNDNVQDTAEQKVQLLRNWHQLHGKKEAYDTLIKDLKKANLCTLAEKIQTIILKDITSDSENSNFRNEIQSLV", "assay": "Chemical crosslinking (DTSSP) and Western blot of Fas trimerization in Jurkat cells", "format": "cell-based", "conditions": "Fas Ligand 2 μg/ml, DTSSP", "method": "FIG. 3a presents data collected from Jurkat cells (1×10^6) treated with 2 μg/ml of Fas Ligand with or without AlphaMet for 30 minutes on ice. Cells were washed with PBS twice and then incubated with 2 mM of DTSSP in PBS for 30 minutes. The crosslinking process was stopped by 20 mM of Tris (pH 7.5) for another 30 minutes. Cells were spun down and washed with PBS twice and lyzed in RIPA buffer. Cell lysates were subjected to SDS-PAGE under non-reducing or reducing conditions (FIG. 3b) and Western blot analysis using the mouse monoclonal antibody against human Fas. FIG. 3c depicts the quantification of the data in FIG. 3a by densitometry. The data are the mean and SE from three different independent crosslinking and Western blot experiments. […] Frame A: Acceptor CFP-Fas image; Frame B: Acceptor pre-bleach CFP-Fas image; Frame C: Acceptor post-bleach image. Frame D: Donor YFP-Fas image; Frame E: Donor pre-bleach image; Frame F: […]. The CFP-Fas strength in the selected region obtained a gain of 19.3% efficiency in the presence of FasL for 15 minutes. No FRET was observed without FasL. […] FIG. 3e depicts the results of experiments in which CFP-tagged Fas or CFP control vector were transiently expressed in Hepa 1-6 Cells (3×10^5). […] Cells were fixed and analyzed by fluorescence microscopy. […]"}},
  "data": [
    {"molecule": "B1", "values": [
      {"measurement": "co-precipitation with anti-Fas", "setting": "[1]", "result": "could be co-precipitated with anti-Fas"},
      {"measurement": "Fas trimerization", "setting": "[2]", "result": "reduced the Fas trimerization to the background level"}
    ]}
  ]
}
